Data: article PMC9931213, “Structural basis for ATG9A recruitment to the ULK1 complex in mitophagy initiation” (Science Advances, 2023)

B1: MBP-FOLDON-ATG9A (692–839) [bacteriophage T4 | human] / TSF-ATG13^HORMA:GST-ATG101 complex, wild type [human] (parent complex)
chain 1: QLQSLVLSEYASTEMSLHALYMHQLHKQQAQAEPERHVWHRRESDESGESAPDEGGEGARAPQSIPRSASYPCAAPRPGAPETTALHGGFQRRYGGITDPGTVPRVPSHFSRLPLGGWAEDGQSASRHPEPVPEEGSEDELPPQVHKV
chain 2: METDLNSQDRKDLDKFIKFFALKTVQVIVQARLGEKICTRSSSSPTGSDWFNLAIKDIPEVTHEAKKALAGQLPAVGRSMCVEISLKTSEGDSMELEIWCLEMNEKCDKEIKVSYTVYNRLSLLLKSLLAITRVTPAYRLSRKQGHEYVILYRIYFGEVQLSGLGEGFQTVRVGTVGTPVGTITLSCAYRINLAFMS
chain 3: MNCRSEVLEVSVEGRQVEEAMLAVLHTVLLHRSTGKFHYKKEGTYSIGTVGTQDVDCDFIDFTYVRVSSEELDRALRKVVGEFKDALRNSGGDGLGQMSLEFYQKKKSRWPFSDECIPWEVWTVKVHVVALATEQERQICREKVGEKLCEKIINIVEVMNRHEYLPKMPTQSEVDNVFDTGLRDVQPYLYKISFQITDALGTSVTTTMRRLIKDTLAL

Variants of: B1
Assay: GST pull-down; n = 3; read off a plot

Row | Variant | ratio to parent
1 | chain 2 Y115D | ~0.97
2 | chain 3 Y45D | ~0.02
3 | chain 2 F19D | ~0.02
4 | chain 2 Y118D | ~0.03
5 | chain 2 K18D | ~0.11
6 | chain 2 E83L | ~0.88
7 | chain 2 F16D | ~0.1
8 | chain 2 K15D | ~0.26
9 | chain 2 W50D | ~0.02
10 | chain 3 W110D, chain 3 F112D | ~0.8
